Experimental data: the DeepSol protein solubility set

experiment: soluble on expression in E. coli; label from the status in PepcDB or PDB records

Sequence	soluble on expression in E. coli
MNNKNLALKAPLSGPVMPLNRVPDPVFSSGTLGEGIAIDPLNDCLHAPCAGLVSHLARTRHALSLRADNGAELLLHVGLDTVQLQGEGFEALVEEGARVIEGQPLLRFDLDRVARGSRSLITVMILTNGDGFQVRPLTTNPVEVGAPLLQLSPEKAEQRPANPAPGEGSAQRQVRGRARVAHHGGLHARPAALLRKTAQGFSSQAELHFAGQVASVDSLVGIMGLGVAEQDEVEVICRGEDSEAALGALLAALASATAGAPKDAPRAIAPGEPARPAAVAGTLAGVCASPGLASGPLARLGAISLPADDGRHRPEEQHLALDQALQRVRDDVQGSLQQARLGGDENEAAIFSAHLALLEDPGLLDAADMLIDQGVGAAHAWHRAIQAQCEILQALGNLLLAERANDLRDLEKRVLRVLLGDTAPLRVPAGAIVAAREITPSDLAPLVDAGAAGLCMAEGGATSHVAILARSKGLPCLVALGAGLLELEEGRQVVLDAGQGRLELSPDARRLEQVALQVAQREEQRRRQQADAQREALTRDGRRIEIGANVASPREAAEAFANGADGVGLLRTEFLFLERRAAPDEEEQRNAYQEVLDAMGQRKVIIRTIDVGGDKHLDYLPLPVEENPALGLRGIHLGQARPELLDQQLRALLRVEPLERCRILLPMVSEVDELRAIRRRLGELATQLGIERLPELGVMIEVPSAALLADQLAEHADFLSIGTNDLSQYALAMDRCHAGLADRIDALHPALLRLIAQTCAGAARHGRWVGVCGALASDPLATPVLVGLGVEELSVGPNLVGEIKTRVRQLDAAECRRHAQALLDLGSARAVRDACLQ	not soluble
MSKEDNNAVVGHQPATKVGGRRIADHGNQRAQNSTNSSDAVREAMDFDLPAKMEKAYPTAAVKQVHEKPTPAIQPAHYNRATGNGQVRNIPQKQNH	not soluble
MKIAIEGCMHGDLDNVYKTIQHYEQIHNTKVDLLLCCGDFQAVRNEKDMDSLNVPRKYREMKSFWKYYSGQEVAPIPTIFIGGNHEASNYLWELYYGGWAATNIYFLGFAGVVKFGNVRIGGLSGIYNERHYRSGHFERPPYNESTIRSVYHVRDYDVQKLMQLEEPLDIFLSHDWPVGITDYGDSESLMRQKPYFRQEIEEKTLGSKPAALLLEKLKPQYWFSAHLHCKFAAAVQHGNDGSVTKFLALDKCLPGKKFLQIIEIESEPGPFEVLYDEEWLAITRKFNSIFPLTRRYTNVRYTIPNKLPTKKWERTDIPASLAPSDTYSVKLFIYSFYLPIVMKLHQAPMTEMFSAVSRIKHVLLCIADLPTYDSEEIPIDDIDEIEEMEEAKADDHTRDDA	soluble
MDSGDFSPMQSNFSLGFMSFEDIPEDARTTEMIDKIVFEEDKEYDHTQDSFRYGRVTTGVSYNLVTGKIPKTVFEQVKAKDDENDNVEFEMEHLEDKETAHKTQTFDELYESQMPKYFDYQSNFSDVNGIWTLLFDQNHYEKMSTFELQAAICAALNSKHFMMICVGIDAFNAVTGVEMSAKDRVVFRMALTRAVAGEFQPPLVKVAPKQLTGVSPMKRDISEVTSSIDVLFVPVIGVTDEVENNRFLIVVRVKGT	not soluble
MQLQPFSQACENNKVPILAVLKSAFANTTRVLEIGSGTGQHAVYFATNLPQLFWQTSDQAEYLEGIKARCLLQGHQLGINNLGFPITLDVTAPWPVNGTHIDAVFSANTLHIMSKSMVEAFFNGLGEYLPQLNTLCIYGPFNYQGHYTSDSNRQFDHFLKQRDSESGIRDIEWIIALAQAQGLTLVEDIAMPTNNRLLHFKHLLALEHHHHHH	not soluble
TGRGVKYWFCYGTKCYYFIMNKTTWSGCKANCQHYSVPIVKIEDEDELKFLQRHVIPEGYWIGLSYDKKKKEWAWIDNGPSKFDMKIRKMNFKSRGCVFLSKARIEDTDCNIPYYCICGKKLDKFPD	soluble
GPGSMSLKKKTFKQRIRKNDMKQRHQIGFGLRKRMGAARRIRNRYDSVDDGTRPMEMIVSEIAEGTAVPSQEAVLDPRSLTDLLLRPAESPVSNNSASASANVATTSCAVASKSNGCSSALWKRGSSKSSALLTSVPLASEKVLPSLPLAPDDPLALPDTRVFEEEERQQRLAREAAARQNENKNLYRHSGQPYLFWERVGLHPALLQALRDLHFTHPTPVQEEVLPNVLASGDEGLARQRSSEADKKSKKHKRAGGAADSAGHDVVVSAETGSGKTLVFALPILQDLLTTLDTERVSAVTPTSSAEAVHEKATGQASSDAAWRERS	soluble
MSIQKLLSKARKAIQDFDMIQENDKIAVGLSGGKDSLTLLHILKSYQRFSPQNFELIAITLNTGGVDNSPLDKLCKEINVPFYEFQTDIKEIVFDIRQEKNPCALCANLRRGALNDNAKKLGCNKVALGHHKDDAIETFLMSMFYEGRVNCFSPKTYLDRQDLTVIRPMVYIEEYMTKKISKDSNYPIITNPCPANGHTRREYIKNLIANLNKEMPDFKRNVFGALNNSEKLFIWDKEKIKNFK	not soluble
MMEEYVVIGKVLDTFGLEGELKVRPYAPPEVFENLEKVYLKRKGGDWVPFEVEWVDFIDDKVIIKFKGYDSIDEVEQFKGAKLFLPKEELPELGEEEYYAYELVGMEVETDKGKKLGKVERVQDMGPYDALVLDKENLLVPFVSDIVLKVDKENKKIIVKEELLPVLEHHHHHH	soluble
MLFSMESILSSTKPKLEPPPKLEPEVTINEQVVDLPRSNTRLSEPSTSASVLEHDLKFGESRKRSRSLGDEPTEDEDGVPVRKANKRNHSTSSAADSSSDDAKDDDDDDDSTSRKSMSGHRKSSHAKPPYSYIALIAMSILNSPEKKLTLSEICEFIINKFEYYKEKFPAWQNSIRHNLSLNDCFVKVARGPGNPGKGNYWALDPNCEDMFDNGSFLRRRKRYKKNSDTYHEMMSHHPMPFPPFLPQGMPFPPRMMHPMANIPMLGHPMNPRAVPNMPAFFIPQNIDSQKLLSMMASRIMPMDAPVSSGQKRTSSSSSPNENGSSAVSDKLSA	soluble
MAHHHHHHMSLRLCVCTATANGEYYMSMFNKHLSSFFKTITLGSTVDDFKQDKDSKDSIILYVEGPVGHDAIKYLCDDYHLPKEQRRVLWIYSLTAGVDVYRLGELVKELQDIPFANARGCYSSVLAEHVMYSMLYFYRQTWRSLASRAEHKWDPFLMVELRGKKVGIIGYGDIGQASAKLLSAFGMEVTGVKRSASTKEVDEYGVRLVHGDAERERVLRESDFVVNILPGTEETKRFFNKELFSMMKPSAVYISIGRGITQNEDDLACALRDGVIRGASVDVFEREPLPAESPLWDISDDKLLLTAHSADRTANLVPDSVRRFIGLVNEYAKTKRLDTYLVDPVRGY	not soluble
KKSPMLCGQYPVKSEGKELKIVVQPETQHRARYLTEGSRGSVKDRTQQGFPTVKLEGHNEPVVLQVFVGNDSGRVKPHGFYQACRVTGRNTTPCKEVDIEGTTVIEVGLDPSNNMTLAVDCVGILKLRNADVEARIGIAGSKKKSTRARLVFRVNIMRKDGSTLTLQTPSSPILCTQPAGVPEILKKSLHSCSVKGEEEVFLIGKNFLKGTKVIFQENVSDENSWKSEAEIDMELFHQNHLIVKVPPYHDQHITLPVSVGIYVVTNAGRSHDVQPFTYTPD	soluble
SNADRRYKWQTVVSEQLVGAGFNEILNNSLTAGSYYEGLKSHPREMAVELMNPLSQELNCMRQTLLFGGLETLSHNLRRKHLSLYLFEWGKCYRFHAAKRTDETPLAAYAEDDRLGIWICGQRVHNSWAHPEEPTSVFELKAVVEQVLCRVGIETGAYTLKTADNDLYASAMEVKTRSGKLLGTFGTVSTELIKRFEIEQPVYFAELLWDALM	soluble
SMPEQSNDYRVVVFGAGGVGKSSLVLRFVKGTFRDTYIPTIEDTYRQVISCDKSVCTLQITDTTGSHQFPAMQRLSISKGHAFILVFSVTSKQSLEELGPIYKLIVQIKGSVEDIPVMLVGNKCDETQREVDTREAQAVAQEWKCAFMETSAKMNYNVKELFQELLTLETRRNMSLNIDGKRSGKQKRTDRVKGKCTLM	soluble
SSGHIEGRHMNKQATEILNEYFYSHLSNPYPSEEAKEELAKKCGITVSQVSNWFGNKRIRYKKN	soluble
MNDNAFTFQTLHPETIMDALFEQGIMVDSGLTPLNSYENRVYQFQDEDRRRFVVKFYRPERWSVDQIREEHQFALELVKDEVPVAAPLAFNGQTLLAHQGYHYAIFPSVGGRQFEADNIDQMEAVGRYLGRLHQTGRKRPFTFRPDIGLAEYLFEPRQVFEDAALIPSGQKAAFLKATDTLLSAVTECWRTDFATLRLHGDCHAGNILWRDGPLFVDLDDARNGPAIQDLWMLLNGDKAEQRMQLETIIEAYEEVSEFDTAEIGLIEPLRAMRLVYYLAWLIRRWGDPAFPKNFPWLTGEDYWQRQTTTFIEQTKILHEPPLQLTPMYLEHHHHHH	not soluble
MSQLLLNLEGKTKIKAIARKNDLCERKSSNLHHFCVEFHNNYEFLEIGLSEARSLASISDKNVLNSNRKAENYQKKWKNFEKESILKLNSIMEKISSHSQPSHHHTNASITLPYDATIQKIAEKEKNLSKLLKELSIVDSSLKEEKASFEKTQSALLKEKGKIEKDKLMLREEAQKQASMNAEVQKKELESQERLSVLNKQFMEENEKKVKLEQEELDSKNAYNDCLQLNIPNAESQMITDQLATLDEFYSDLNNNSSNEIMAEIPDFEEIIDLFNQFKSSMESQKDILNTLAGLEEQLGDHQLEIKSVRKDINKLKGLQGKQSFYKEELKLKKSALEEIQRKIDYDQDVLNSLKVVEKAAKPDDYLRPRNSRKESVFRKLPIPERSMQHDSDTLDTRKNSKTMLKNESTRHSNPGIRLLKVPNRDSDEESENSFDDGTTQDESGVNAFFGQLSDEKEESPTAVEFSMAAHLTEFSQRQAAAAAKMNMKTPEKKVVEIESDEDDDLDSSIIAPNRAKSKDDRKSDDSDDDLNDEEGDADQSIWGSDD	not soluble
MIHDYHWRRGKRRKLIVMMETRMMIIMMTIKPPHDIYREQQNHHDDETKRSTKHCVTATHPWPRPAASCFRCPLRGGHHRRRPACALPHGWSVMNSCSLEHHHHHH	not soluble
HMSFSHVCQVGDPVLRGVAAPVERAQLGGPELQRLTQRLVQVMRRRRCVGLSAPQLGVPRQVLALELPEALCRECPPRQRALRQMEPFPLRVFVNPSLRVLDSRLVTFPEGCESVAGFLACVPRFQAVQISGLDPNGEQVVWQASGWAARIIQHEMDHLQGCLFIDKMDSRTFTNVYWMKVND	soluble
MGHHHHHHSHMSNWLEHSVQVEVEAPIDLVWGLWADLEQMPNWMKWIDSVKVPPENPDLSLWKLNTGGLEFTWKSRITKVITNQIIQWESIDGLPNQGAIRFYDRHGHSIVKMTISYAIPGFLGKIMDNLFLG	not soluble
MGSDKIHHHHHHMHPNIATLLSANLGESRTRHLLSLVSVPDGLPSDAEGRATRAEIAQALNMVLFAGILDRVPTGRAYTDDVAATGGKVVFDHGALRTVKWRDNGALPEGEAAFTRILRPLGYRLNGNYPLDRISMTGRSYAHADAPEGIAQFFVSEFHPERFSDAFREAVGRVTGNSADPLTPRAQTLLWQLDRDGVLTVADGAELIGLLVPCFERQHGVPRLADYETLLRESAEMAWIATEGNAFNHATDRVDDVFGLSEQQKALGRPMKDKVEVSGSGRVKQTAFRADTVRRQFIGAQGETVERDVPGSFYEFITRDRFADAPAASPRVDLGFDAGNAQGIFKMTAAV	not soluble
MGSDKIHHHHHHMSNTKKGLATAGYNDDLAKLEEIFLPNFFYKKMQYYFSSSGLISNDVLFVHYTSTESALDIIREKRVLMRNALHMPDRQEVQDGFNIMDGLLSNENNHWVEFRNRIEVVLPGVVDRVMKIYSDHSHGRNDGTYFLSVLEHDESEKELGRLSMWRAFCGQSQPVAMFLRLPALSAVSQVLRIFFNPVLYKGKGQQHLELAEVIKNVENHKSFLERLDPDLVTSAIVSMILINVLCVKHKVFKEEREWRCVYLPKCFTSETSARLIEPGVEEQVGASRNVYKMPLNAAIDPVLSDIDLSKIFDSLIIGPSKSPYATYEVFCDELKKIGVSDVESKVRVTEIPVR	not soluble
